Measurements from patent US20050182242A1, “Global analysis of protein activities using proteome chips” (priority 2001, published 2005).

Assays:
Conditions in all cases: liposome binding signal on yeast proteome chip, Cy3-streptavidin detection
[1] = tested on: phosphatidylcholine (PC) liposomes; assay: Yeast proteome chip probed with PC liposomes
Text: (§1) To identify PI-binding proteins in yeast, liposomes were used as probes because the liposome provides the most relevant physiological condition to assay the interactors. Six types of liposomes were used. Each contains phosphatidylcholine (“PC”) with 1% (w/w) N-(biotinoyl)-1,2-dihexadecanoyl-sn-glycero-3-phosphoethanolamine, triethylammonium salt (biotin DHPE). The biotinylated lipid serves as a label that can be detected by Cy3-streptavidin (21). In addition to PC, the five other liposomes contain either 5% (w/w) PI(3)P, PI(4)P, PI(3,4)P2, PI(4,5)P2, or PI(3,4,5)P3 (FIG. 3A).
(§2) The protein-liposome interaction was assayed as follows. Appropriate amounts of each lipid in chloroform were mixed and dried under nitrogen. The lipid mixture was resuspended in TBS buffer by vortexing. The liposomes were created by sonication. Blocked proteome chips were washed three to five times in PBS buffer, and the extra liquid on the glass surface was removed by tapping the slides vertically on a KIMWIPE™. 200 μl of liposome solution was added to the proteome chip and immediately covered by a hydrophobic plastic cover slip (GRACE BIO-LAB™, USA). After trapped air bubbles were removed, the chip was incubated in a humidity chamber at RT for one hour. To remove the cover slip, the chip was immersed into large volume of PBS buffer (50 ml), so that the slip would float away. The chip was then moved to a second PBS bath (>50 ml) and washed 3×5 min with shaking at RT. After removing extra liquid on the surface of the chip, about 100 μl of Cy3 or Cy5 conjugated streptavidin (PIERCE™, USA; 1:2000 to 1:4000 dilution) was added to the surface and covered by a hydrophobic plastic cover slip (GRACE BIO-LABS™, USA). The chip was incubated for greater than 30 min in the dark at RT. The chip was then washed as described above. To completely remove the liquid on the chip, the chip was spun to dryness at 1500-2000 rpm for 5-10 min at RT.
(§3) • 1. S. Fields, Y. Kohara, D. J. Lockhart, Proc. Natl. Acad. Sci. 96, 8825 (1999); A. Goffeau et al., Science 274, 563 (1996). • 2 P. Ross-Macdonald et al., Nature 402, 413 (1999); J. L., DeRisi, V. R. Iyer, P. O. Brown, Science 278, 680 (1997); E. A. Winzeler et al., Science 285, 901 (1999). P. Uetz et al., Nature 403, 623 (2000); T. Ito et al., Proc. Natl. Acad. Sci. USA. 97, 1143 (2000) • 3 H. Zhu, M. Snyder, Curr. Opin. Chem. Biol. 5, 40 (2001). • 4 M. R. Martzen et al., Science 286, 1153 (1999). • 5 H. Zhu et al., Nat. Genet. 26, 283 (2000). • 6 G. MacBeath, S. L. Schreiber, Science 289, 1760 (2000). • 7 A. Caveman, J. Cell Sci. 113, 3543 (2000). • 8 P. Arenkov et al., Anal. Biochem 278, 123 (2000). • 9 D. A. Mitchell, T. K. Marshall, R. J. Deschenes, Yeast 9, 715 (1993). The expression vector pEGH was created by inserting an RGS-HisX6 epitope tag between the GST gene and the polycloning site of pEG(KG). The yeast ORFs were cloned using the strategy described previously (5), except every step was done in a 96-well format. Plasmid DNAs confirmed by DNA sequencing were reintroduced into both yeast (Y258) and E. coli (DH5a). […] 0.1 mM calcium was present in buffers in all subsequent steps. The chip was washed three times with PBS at RT. Cy3-conjugated streptavidin (Jackson IR, USA) (1:5000 dilution) was added to the chip and incubated for 30 min at RT. After extensive washing, the chip was spun dry and scanned using a microarray scanner; the data was subsequently acquired with the GENEPIX™ array densitometry software (Axon, USA). • 12 S. S. Hook, A. R. Means, Annu. Rev. Pharmacol. Toxicol.41, 471 (2001). • 13 M. S. Cyert, R. Kunisawa, D. Kaim, J. Thorner, Proc. Natl. Acad. Sci. USA 88, 7376 (1991). • 14 D. A. Stirling, K. A. Welch, M. J. Stark, EMBO J. 13, 4329 (1994). • 15 F. Bohl, Kruse, EMBO J. 19, 5514 (2000); E. Bertrand et al., Mol. Cell 2, 437 (1998). • 16 D. C. Winter, E. Y. Choe, R. Li, Proc. Nat. Acad Sci. USA 96, 7288 (1999). • 17 C.

PI(3,4,5)P3 liposomes = assay: Yeast proteome chip probed with PI(3,4,5)P3 liposomes
Text: as §1, §2, §3

PI(3,4)P2 liposomes = assay: Yeast proteome chip probed with PI(3,4)P2 liposomes
Text: as §1, §2, §3

PI(4,5)P2 liposomes = assay: Yeast proteome chip probed with PI(4,5)P2 liposomes
Text: as §1, §2, §3

PI(4)P liposomes = assay: Yeast proteome chip probed with PI(4)P liposomes
Text: as §1, §2, §3

Molecule | PC [1] | PI(3, 4, 5)P3 (PI(3,4,5)P3 liposomes) | PI(3, 4)P2 (PI(3,4)P2 liposomes) | PI(4, 5)P2 (PI(4,5)P2 liposomes) | PI(4)P (PI(4)P liposomes)
SUN4: yeast GST-HisX6 fusion protein on proteome chip (protein, UniProt P53616 25-420, looked up, GST-His6 tag, yeast GST-HisX6 fusion protein on proteome chip) Probable secreted …: YAADIDTGCTTTAHGSHQHKRAVAVTYVYETVTVDKNGQTVTPTSTEASSTVASTTTLISESSVTKSSSKVASSSESTEQIATTSSSAQTTLTSSETSTSESSVPISTSGSASTSSAASSATGSIYGDLADFSGPYEKFEDGTIPCGQFPSGQGVIPISWLDEGGWSGVENTDTSTGGSCKEGSYCSYACQPGMSKTQWPSDQPSDGRSIGGLLCKDGYLYRSNTDTDYLCEWGVDAAYVVSELSNDVAICRTDYPGTENMVIPTYVQAGDSLPLTVVDQDTYYTWQGLKTSAQYYVNNAGISVEDACVWGSSSSGVGNWAPLNFGAGSSDGVAYLSLIPNPNNGNALNFNVKIVAADDSSTVNGECIYENGSFSGGSDGCTVSVTAGKAKFVLYN | 69.55 | 33.19 | 20.88 | 66.41 | 60.75
PKR1: yeast GST-HisX6 fusion protein on proteome chip (protein, UniProt Q03880 1-122, looked up, GST-His6 tag, yeast GST-HisX6 fusion protein on proteome chip) V-type ATPase assembly factor …: MANFFVRLWESVFEPGTSPQLIIATHVSFVALLLTLIWLIYATNGNIHFYALFCISLLLWITVIWFINELSHVKLKDNDELDKDANKKDDSAIKEDSEDKQESGKSTSTARRTQAQSRSRKA | 61.63 | 15.75 | 37.52 | 87.75 | 61.40
WRS1: yeast GST-HisX6 fusion protein on proteome chip (protein, UniProt Q12109 1-432, looked up, GST-HisX6 tag, yeast GST-HisX6 fusion protein on proteome chip) Tryptophan--tRNA ligase, …: MSNDETVEKVTQQVSELKSTDVKEQVVTPWDVEGGVDEQGRAQNIDYDKLIKQFGTKPVNEETLKRFKQVTGREPHHFLRKGLFFSERDFTKILDLYEQGKPFFLYTGRGPSSDSMHLGHMIPFVFTKWLQEVFDVPLVIELTDDEKFLFKHKLTINDVKNFARENAKDIIAVGFDPKNTFIFSDLQYMGGAFYETVVRVSRQITGSTAKAVFGFNDSDCIGKFHFASIQIATAFPSSFPNVLGLPDKTPCLIPCAIDQDPYFRVCRDVADKLKYSKPALLHSRFFPALQGSTTKMSASDDTTAIFMTDTPKQIQKKINKYAFSGGQVSADLHRELGGNPDVDVAYQYLSFFKDDDVFLKECYDKYKSGELLSGEMKKLCIETLQEFVKAFQERRAQVDEETLDKFMVPHKLVWGEKERLVAPKPKTKQEKK | 62.51 | 51.08 | 63.10 | 21.56 | 4.57
SXM1: yeast GST-HisX6 fusion protein on proteome chip (protein, UniProt Q04175 1-944, looked up, GST-His6 tag, yeast GST-HisX6 fusion protein on proteome chip) Importin beta SMX1: MVQEQAILSCIEQTMVADAKIIKEAEQQLFEFQKQPGFTSFLLNIVSDDNFALNVRLSSAIYLKNKIHRSWDTKREDGIKADEKLSIKERLIETLVKNCENNHIRPILTETINGILVGQEDWDLAPIIKNLLSSGDASYIYPGLLLLFQLCKAHRWDMVGSRDYIDSVIEELFPIVEGIASNIGSQTDYRSNEILYLILKSFKYACLNNLPQYFSQPERIMSWVQLHLYLCSKPLPVEVMELDPADRSLDKRVKVNKWGFGNLNRFLQRYNKITKAITKEFIDYIFNTIVPIILREFFKDIEAWGNNSLWLSDSSLYFLISFLEKCVTIDQLYPLIEPHLQIIFENVIFPCLCANEQSIELLEDDQEEYTRRYFDINREGSTPDAASADFIFLIGSKRPEKLNNILPFINDIFTRFDANSSDINMAFKEEGALRTLSNLFSFIDEPSVLENIFGHFIVPLLSQDKYMFLVARSLETIALYSEEFKDMNILSQLFELTYTNFLNSNVLPVQIEAADAIKCLIVSNPQIHPAVSAHVPGMMEKLLKLSKIFEIDILSEVMEALVERFSDELSPFAKDLASNLVEQFLRIAQALVENPSETYSASDQEQEIQASGLLQTMTTMVMSMNKVPLIESLAPVVKFVVLHAQISFITEAVDLLDALTISSHLLYNQIAPPIWELLHDILDSFQTYAMDYFEAYSIFFETIVMTGFPQDQTYVQPLLEILSAKLESEVDYDIEHVMQILMYFALSMRDIPLFSKAIKVSTNDELGLDSKCIVKLGLANLFAKPIETLQIMENEGFTINFFTNWFNEKFYSVFAIKLQVLVILTLLKMPEVPNSVSPLLNNLTNKLVELTLSLPKAIRNRDAVTEGKSLEGDLTPEEEEEYFIECDDDMKETVLDQINVFQEVHTFFKNLQNEDAGKYEKIINYLDESKRDSLQVILEFVSQH | 51.95 | 23.40 | 19.15 | 27.22 | 30.48
DPS1: yeast GST-HisX6 fusion protein on proteome chip (protein, UniProt P04802 2-557, looked up, GST-His6 fusion tag, yeast GST-HisX6 fusion protein on proteome chip) Aspartate--tRNA ligase, …: SQDENIVKAVEESAEPAQVILGEDGKPLSKKALKKLQKEQEKQRKKEERALQLEAEREAREKKAAAEDTAKDNYGKLPLIQSRDSDRTGQKRVKFVDLDEAKDSDKEVLFRARVHNTRQQGATLAFLTLRQQASLIQGLVKANKEGTISKNMVKWAGSLNLESIVLVRGIVKKVDEPIKSATVQNLEIHITKIYTISETPEALPILLEDASRSEAEAEAAGLPVVNLDTRLDYRVIDLRTVTNQAIFRIQAGVCELFREYLATKKFTEVHTPKLLGAPSEGGSSVFEVTYFKGKAYLAQSPQFNKQQLIVADFERVYEIGPVFRAENSNTHRHMTEFTGLDMEMAFEEHYHEVLDTLSELFVFIFSELPKRFAHEIELVRKQYPVEEFKLPKDGKMVRLTYKEGIEMLRAAGKEIGDFEDLSTENEKFLGKLVRDKYDTDFYILDKFPLEIRPFYTMPDPANPKYSNSYDFFMRGEEILSGAQRIHDHALLQERMKAHGLSPEDPGLKDYCDGFSYGCPPHAGGGIGLERVVMFYLDLKNIRRASLFPRDPKRLRP | 62.22 | 13.05 | 25.12 | 41.81 | 99.29
